Test results taken from patent US20240190958A1 (TUBULIS, published 2024).

Legend:
[1] = biological target: T1, human NaPi2b on NaPi2b-positive cell lines OVCAR-3 and HCC-78 (human, UniProt O95436 1-690); assay: cell-based or functional assay
T1 sequence: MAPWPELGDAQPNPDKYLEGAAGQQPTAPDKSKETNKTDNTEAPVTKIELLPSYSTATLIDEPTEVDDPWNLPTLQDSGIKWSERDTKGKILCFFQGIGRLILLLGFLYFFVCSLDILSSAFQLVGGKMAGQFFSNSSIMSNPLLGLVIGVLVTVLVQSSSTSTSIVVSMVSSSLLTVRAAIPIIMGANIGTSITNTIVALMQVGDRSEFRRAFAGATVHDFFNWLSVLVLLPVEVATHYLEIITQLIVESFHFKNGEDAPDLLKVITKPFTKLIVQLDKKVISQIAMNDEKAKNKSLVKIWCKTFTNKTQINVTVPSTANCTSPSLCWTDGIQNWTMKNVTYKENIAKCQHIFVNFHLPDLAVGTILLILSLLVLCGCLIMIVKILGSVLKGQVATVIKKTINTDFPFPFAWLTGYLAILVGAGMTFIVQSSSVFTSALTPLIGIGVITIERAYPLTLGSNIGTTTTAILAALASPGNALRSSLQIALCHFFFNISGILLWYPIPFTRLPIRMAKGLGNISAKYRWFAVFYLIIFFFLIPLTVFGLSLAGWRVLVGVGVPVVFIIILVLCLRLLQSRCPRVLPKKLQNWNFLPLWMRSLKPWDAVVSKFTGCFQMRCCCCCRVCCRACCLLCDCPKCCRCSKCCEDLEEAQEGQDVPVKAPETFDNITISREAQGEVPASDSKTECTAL

[2] = biological target: T2, recombinant human FcγRIIa/CD32 H131 (Lumit binding immunoassay) (human, UniProt P12318 34-217, limits assumed); assay: Lumit FcγRIIa (CD32) (H131) Binding Immunoassay (Promega), competition with Tracer-LgBiT for FcγR-SmBiT, luminescence, n=1; left panel
T2 construct: Kit reagent (Promega), used as an FcγR-SmBiT fusion; also called FcγRIIa/CD32 R131/H131 polymorphism
T2 sequence (looked up): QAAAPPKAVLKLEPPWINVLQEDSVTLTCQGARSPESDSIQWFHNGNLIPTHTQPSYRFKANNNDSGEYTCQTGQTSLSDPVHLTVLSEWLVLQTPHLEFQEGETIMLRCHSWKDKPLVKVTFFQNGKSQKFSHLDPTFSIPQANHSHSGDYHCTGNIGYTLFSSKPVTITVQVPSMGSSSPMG
Procedure: Luminescence was measured on a microplate reader Infinite M200 Pro (Tecan).
FcγR interaction studies were performed using the Lumit™ FcγR Binding Immunoassays (FcγRn, FcγRI, FcγRIIa/CD32 R131/H131 polymorphism, FcγRIIIa/CD16 V158/F158 polymorphism; Promega) based on a competition principle and luciferase detection according to the manufacturer's instructions. […] Luminescence is measured on a microplate reader Infinite M200 Pro (Tecan)._Graphs show n=1.

B1: AV25-P5(PEG24)-VC-PAB-Exatecan DAR8 ADC (antibody, human IgG1, kappa, L234A L235A)
heavy: not shown
light: DIQMTQSPSSLSASVGDRVTITCSASQDIGNFLNWYQQKPGKTVKVLIYYASSLYSGVPSRFSGSGSGTDYTLTISSLQPEDFATYYCQQYSKLPLTFGQGTKLELKRTVAAPSVFIFPPSDEQLKSGTASVVCLLNNFYPREAKVQWKVDNALQSGNSQESVTEQDSKDSTYSLSSTLTLSKADYEKHKVYACEVTHQGLSSPVTKSFNRGEC
modifications: P5(PEG24)-VC-PAB-Exatecan linker-payload on the interchain cysteine residue (light chain adduct 1; DAR8 in total); P5(PEG24)-VC-PAB-Exatecan linker-payload on interchain cysteine residues (heavy chain adducts up to 3; DAR8 in total)
notes: also called TUB-040
cytotoxicity (resazurin assay) on HCC-78, fold lower IC50 against the anti-Napi2b comparison ADC [1]: 15.5 fold
binding result [2]: no binding (tested: 250 µg/ml)

B2: AV25 mAb (LALA-silenced, AV25 HC-LALA) (antibody, human IgG1, kappa, L234A L235A)
heavy: not shown
light: B1 light
notes: IgG1 kappa; also called unmodified AV25 mAb
binding result [2]: no binding (tested: 250 µg/ml)
